The source of these data is patent US20130079286A1 (Pieris, published 2013).

The target in experiment [1] is T1, biotinylated Aβ40 peptide (human, C-terminal biotin group attached via a lysine spacer).
T1 construct: Synthetic peptide (Peptide Speciality Laboratory) with a C-terminal biotin on a lysine spacer; used in the capture ELISAs
In words: capture ELISA: mutein captured via Strep-tag II on StrepMAB-Immo, biotinylated Aβ40 titrated. Here is the method:
(§1) FIG. 5 depicts the binding activity of the Lcn2 muteins H1-G1, S1-A4, and US7 in capture ELISAs with different biotinylated Aβ targets. StrepMAB-Immo at 10 μg/ml was immobilized on microtitre plates and employed for capturing of 1 JAM Lcn2 muteins via the Strep-tag H. In figures A to C the binding of the Lcn2 muteins S1-A4 and US7 to (A) biotinylated Aβ40, (B) biotinylated Trx-Aβ28, and (C) biotinylated MBP-Aβ40 are shown. Binding was detected by incubation with ExtrAvidin/AP and a subsequent chromogenic reaction with pNPP. Ovalbumin (Ova), thioredoxin (Trx), and maltose binding protein (MBP) were used as negative controls. Additionally, binding of wild-type (wt) lipocalin was tested. The data were fitted to a monovalent binding model.
(§2) For selective capturing of the Lcn2 muteins carrying the C-terminal Strep-tag II (Schmidt and Skerra (2007) Nat. Protoc. 2, 1528-1535), a 96-well MaxiSorp polystyrene microtitre plate (Nunc, Langenselbold, Germany) was coated with 10 μg/mL StrepMAB-Immo (IBA, Göttingen, Germany) in PBS over night at 4° C. and blocked with 3% (w/v) BSA in PBS/T at room temperature for 1 h. After 3 washing steps with PBS/T, 50 μL of a 1 μM solution of the purified Lcn2 muteins from Example 7 were applied to all wells for 1 h. After washing, 50 μL of a dilution series of the biotinylated targets Aβ40, MBP-Aβ40 or Trx-Aβ28 from Example 2 were added and incubated for 1 h whereby the biotinylated forms of Ova, MBP and Trx from Example 2 served as negative control proteins. The wells were washed again and bound conjugate was detected with 50 μL of ExtrAvidin/AP conjugate (Sigma-Aldrich, Steinheim, Germany) diluted 1:5000 in PBS/T for 1 h, followed by signal development in the presence of 100 μL 0.5 mg/mL p-nitrophenyl phosphate (AppliChem, Darmstadt, Germany) in 100 mM Tris/HCl, pH 8.8, 100 mM NaCl, 5 mM MgCl₂.

The target in the next experiment is T2, central peptide Aβ16-27.
T2 construct: Bought from the Peptide Speciality Laboratory
T2 peptide: KLVFFAEDVGSN
In words: capture ELISA: mutein captured, Aβ16-27 titrated.

For experiment [2], the target named is T3, MBP-Aβ40 fusion protein.
T3 construct: the entry may be a nucleic acid; Biotin-labelled in the capture ELISA, unlabeled in the direct ELISA and SPR; also called MBP-Abeta40
As to the kind of experiment: direct ELISA: MBP-Aβ40 coated, mutein titrated, detected via Strep-tag II. Here is the method: The Aβ targets Trx-Aβ28 and MBP-Aβ40 as well as the control protein maltose binding protein (MBP) were immobilized at 2 μM in PBS over night. Bound Lcn2 muteins were detected via their Strep-tag II using Streptavidin/AP followed by a chromogenic reaction with pNPP. As a control, the binding of wild-type (wt) lipocalin was tested. The data were fitted to a monovalent binding model.
Alternatively, for a “direct” ELISA, 2 μM unlabeled Aβ40 target from Example 2 was adsorbed onto a 96-well MaxiSorp polystyrene microliter plate (Nunc, Langenselbold, Germany) and incubated with the purified Lcn2 mutein, which was detected via the Strep-tag II using a 1:1500 dilution of Streptavidin/AP conjugate (GE Healthcare UK Ltd, Buckinghamshire, UK). As a control, 2 μM MBP from Example 2 was adsorbed onto the ELISA plate. Absorption at 405 nm was measured in a SpectraMax 250 reader (Molecular Devices, Sunnyvale, USA).

In the next experiment the target is T4, Trx-Aβ28 fusion protein (Escherichia coli (strain K12), UniProt P0AA25 1-76 = thioredoxin, Biotin-labelled through an NHS ester (2:1) in the capture and competitive ELISAs; unlabeled in the direct ELISA and as competitor.).
T4 construct: the entry may be a nucleic acid; also called TrxAbeta28H6
In words: competitive ELISA: mutein captured, 5 nM biotinylated Trx-Aβ28 as tracer, unlabeled Trx-Aβ28 varied as competitor.

Experiment [3] addresses T5, Aβ40 peptide, non-labeled (human).
T5 construct: Non-labeled synthetic peptide (W. M. Keck Laboratory); also called Abeta40; amyloid beta peptide
In words: SPOT membrane of overlapping Aβ40 peptides, 50 nM mutein.

The target of another experiment is T6, ovalbumin (UniProt P01012 2-386).
T6 sequence (looked up): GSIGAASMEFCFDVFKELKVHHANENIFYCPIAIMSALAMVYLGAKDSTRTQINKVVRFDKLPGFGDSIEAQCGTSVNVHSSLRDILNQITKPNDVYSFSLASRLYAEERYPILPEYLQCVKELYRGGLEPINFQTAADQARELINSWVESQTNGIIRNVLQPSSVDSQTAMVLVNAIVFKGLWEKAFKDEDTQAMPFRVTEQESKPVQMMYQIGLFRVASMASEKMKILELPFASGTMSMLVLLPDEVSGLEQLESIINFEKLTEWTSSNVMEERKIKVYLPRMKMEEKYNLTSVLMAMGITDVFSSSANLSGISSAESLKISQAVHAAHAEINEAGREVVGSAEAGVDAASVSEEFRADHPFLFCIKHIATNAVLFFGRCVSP
As to the kind of experiment: capture ELISA: 1 µM Lcn2 protein captured via Strep-tag II on coated StrepMAB-Immo, biotinylated target titrated, ExtrAvidin/AP + pNPP. Here is the method: as §1, §2

The target in experiment [4] is T3, MBP-Aβ40 fusion protein. In words: SPR (Biacore X), MBP-Aβ40 amine-coupled, mutein as analyte. The protocol: (§3) Real time analysis of Lcn2 muteins was performed on a Biacore X system (Biacore, Uppsala, Sweden) using PBS/T (PBS containing 0.005% (v/v) Tween 20) as running buffer. A 50 μg/mL solution of MBP-Aβ40 from Example 2 in 10 mM Na-acetate, pH 4.5 was immobilized onto a […] chip (Xantec, Düsseldorf, Germany) using standard amine coupling chemistry, resulting in a ligand density of 1455 resonance units (RU). […] The sensorgrams were corrected by subtraction of the corresponding signals measured for the control channel, which had been activated and blocked with ethanolamine. […] During this step the kₒₙ and koff rates were fitted globally, while the maximum response difference Rₘₐₓ was fitted locally for each curve.

The target of experiment [5] is T3, MBP-Aβ40 fusion protein. As to the kind of experiment: SPR (Biacore), MBP-Aβ40 amine-coupled (1455 RU), mutein as analyte. Here is the method: FIG. 8 depicts the kinetic real time analysis of Lcn2 muteins S1-A4 (A) and US7 (B) measured on a Biacore instrument at a flow rate of 10 μl/min. The MBP-Aβ40 fusion protein was coupled via amine chemistry on a CMD 200I chip (ΔRU=1455) and each of the purified Lcn2 muteins was applied in a series at different concentrations. The measured signal is shown as a grey line whereas the curve fit is depicted as a black line in each case.
as §3

T1 sequence (peptide, as listed by the source): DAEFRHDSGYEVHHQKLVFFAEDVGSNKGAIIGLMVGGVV
T5 sequence (peptide, as listed by the source): as above

B1: Lcn2 mutein S1-A4 (designed binder)
chain: QDSTSDLIPAPPLSKVPLQQNFQDNQFHGKWYVVGVAGNYTLREDKDPLKMYATIYELKEDKSYNVTSVGFRLKKCNYKIRTFVPGSQPGEFTLGIIKSQPGMTSYLVRVVSTNYNQHAMVFFKTVGQNREMFNITLYGRTKELTSELKENFIRFSKSLGLPENHIVFPVPIDQCIDG
On to B1, for which the Kd turned out to be 2.7 nM in experiment [1]; 2.6 nM in the experiment with central peptide Aβ16-27; 149 nM with MBP-Aβ40 fusion protein [2]; 21.7 nM in the experiment with Trx-Aβ28 fusion protein; 1.7 nM in the experiment with MBP-Aβ40 fusion protein [4]. Also, the binding result is “binds” in experiment [3] and “no binding (tested: 250 nM)” with ovalbumin. For the same molecule, the koff with MBP-Aβ40 fusion protein [5] is 8.36e-05 s⁻¹. Also, the kon with MBP-Aβ40 fusion protein [5] was 48000 M⁻¹ s⁻¹.
